How the values were obtained:
[1] = molecular target: His6-tagged vaccinia virus D13 (native D13) (vaccinia virus, Western Reserve strain); assay: crystal structure
[2] = molecular target: His6-tagged vaccinia virus D13 (native D13) (vaccinia virus, Western Reserve strain); assay: negative-stain electron microscopy

**Q.** Which results are given for “His6-tagged vaccinia virus D13 (native D13) (natural protein)”?
**A.** stoichiometry N [1]: 3; stoichiometry N [2]: 3

Source: PMC3169552
